A value given as a limit tells only on which side of the number the result lay.

Experiment [1] concerns the target Human TIGIT residues 23-128 PRO79A mutant (human) (UniProt Q495A1). As to the kind of experiment: SPR, capture immobilization, TIGIT alanine mutants.
Experiment [2] concerns the target Human TIGIT residues 23-128 ILE68A mutant (human) (UniProt Q495A1). Kind of experiment: SPR, capture immobilization, TIGIT alanine mutants. For orientation: In SPR one partner is held on a chip, and binding of the other changes the refractive index at the surface.
Experiment [3] has as its target Human TIGIT residues 23-128 HIS76A mutant (human) (UniProt Q495A1). Kind of experiment: SPR, capture immobilization, TIGIT alanine mutants.
Experiment [4] concerns the target Human TIGIT residues 23-128 ASP63A mutant (human) (UniProt Q495A1). As to the kind of experiment: SPR, capture immobilization, TIGIT alanine mutants.
The target in experiment [5] is Human TIGIT residues 23-128 LEU73A mutant (human) (UniProt Q495A1). Kind of experiment: SPR, capture immobilization, TIGIT alanine mutants.
Human TIGIT residues 23-128 LEU73A mutant (human), sequence (Q495A1 other isoform, or with tags, fused parts or gaps mutant, form in doubt): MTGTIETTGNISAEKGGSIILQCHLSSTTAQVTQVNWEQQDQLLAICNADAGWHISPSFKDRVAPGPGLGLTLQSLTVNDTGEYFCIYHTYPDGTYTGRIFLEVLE
For experiment [6], the target named is Human TIGIT residues 23-128 LEU73A/HIS76A double mutant (human) (UniProt Q495A1). As to the kind of experiment: SPR, capture immobilization, TIGIT alanine mutants.
Human TIGIT residues 23-128 LEU73A/HIS76A double mutant (human), sequence (Q495A1 other isoform, or with tags, fused parts or gaps mutant, form in doubt): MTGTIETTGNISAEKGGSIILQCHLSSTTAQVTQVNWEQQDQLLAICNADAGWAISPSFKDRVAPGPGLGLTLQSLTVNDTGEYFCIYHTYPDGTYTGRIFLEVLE
Experiment [7] addresses Human TIGIT residues 23-128 with C-terminal HIS tag (human) (UniProt Q495A1). As to the kind of experiment: SPR, amine coupling, pH 7.4 against pH 6.0.

Human TIGIT residues 23-128 ILE68A mutant (human), sequence (Q495A1 other isoform, or with tags, fused parts or gaps mutant, form in doubt): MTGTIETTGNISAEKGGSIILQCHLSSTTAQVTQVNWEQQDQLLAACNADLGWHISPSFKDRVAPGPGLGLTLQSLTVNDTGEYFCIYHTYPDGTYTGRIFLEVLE
Human TIGIT residues 23-128 with C-terminal HIS tag (human), sequence (Q495A1 23-128, form in doubt): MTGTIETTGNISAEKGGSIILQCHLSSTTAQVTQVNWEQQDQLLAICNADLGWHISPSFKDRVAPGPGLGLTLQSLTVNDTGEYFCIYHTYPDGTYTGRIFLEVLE
Human TIGIT residues 23-128 PRO79A mutant (human), sequence (Q495A1 other isoform, or with tags, fused parts or gaps mutant, form in doubt): as the sequence (Q495A1 23-128, form in doubt) above, with P57A counted along it
Human TIGIT residues 23-128 HIS76A mutant (human), sequence (Q495A1 other isoform, or with tags, fused parts or gaps mutant, form in doubt): as the sequence (Q495A1 23-128, form in doubt) above, with H54A counted along it
Human TIGIT residues 23-128 ASP63A mutant (human), sequence (Q495A1 other isoform, or with tags, fused parts or gaps mutant, form in doubt): as the sequence (Q495A1 23-128, form in doubt) above, with D41A counted along it

In experiment [1], A1217 (Ociperlimab) (antibody) returned a fold lower binding affinity against WT TIGIT of 3 fold. Besides, the fold decrease in binding affinity against WT TIGIT in experiment [2] worked out at 30 fold; in experiment [4] it was 7 fold. Further, the fold reduction of binding against wild-type TIGIT in experiment [2], in experiment [3] and in experiment [6] was above 10 fold in each case. In experiment [5], this substance displayed a fold reduction in binding affinity against WT TIGIT of 7 fold. The fold increase of binding affinity (KD) from pH 7.4 to pH 6.0 in experiment [7] was determined as 17 fold.

Source of the values: patent EP4554620A1.
